Data reported in paper PMC10786891, “Massively parallel profiling of RNA-targeting CRISPR-Cas13d”.

T1: EsCas13d, nuclease-dead (Eubacterium siraeum, UniProt B0MS50, R295A;H300A;R849A;H854A)
T1 sequence: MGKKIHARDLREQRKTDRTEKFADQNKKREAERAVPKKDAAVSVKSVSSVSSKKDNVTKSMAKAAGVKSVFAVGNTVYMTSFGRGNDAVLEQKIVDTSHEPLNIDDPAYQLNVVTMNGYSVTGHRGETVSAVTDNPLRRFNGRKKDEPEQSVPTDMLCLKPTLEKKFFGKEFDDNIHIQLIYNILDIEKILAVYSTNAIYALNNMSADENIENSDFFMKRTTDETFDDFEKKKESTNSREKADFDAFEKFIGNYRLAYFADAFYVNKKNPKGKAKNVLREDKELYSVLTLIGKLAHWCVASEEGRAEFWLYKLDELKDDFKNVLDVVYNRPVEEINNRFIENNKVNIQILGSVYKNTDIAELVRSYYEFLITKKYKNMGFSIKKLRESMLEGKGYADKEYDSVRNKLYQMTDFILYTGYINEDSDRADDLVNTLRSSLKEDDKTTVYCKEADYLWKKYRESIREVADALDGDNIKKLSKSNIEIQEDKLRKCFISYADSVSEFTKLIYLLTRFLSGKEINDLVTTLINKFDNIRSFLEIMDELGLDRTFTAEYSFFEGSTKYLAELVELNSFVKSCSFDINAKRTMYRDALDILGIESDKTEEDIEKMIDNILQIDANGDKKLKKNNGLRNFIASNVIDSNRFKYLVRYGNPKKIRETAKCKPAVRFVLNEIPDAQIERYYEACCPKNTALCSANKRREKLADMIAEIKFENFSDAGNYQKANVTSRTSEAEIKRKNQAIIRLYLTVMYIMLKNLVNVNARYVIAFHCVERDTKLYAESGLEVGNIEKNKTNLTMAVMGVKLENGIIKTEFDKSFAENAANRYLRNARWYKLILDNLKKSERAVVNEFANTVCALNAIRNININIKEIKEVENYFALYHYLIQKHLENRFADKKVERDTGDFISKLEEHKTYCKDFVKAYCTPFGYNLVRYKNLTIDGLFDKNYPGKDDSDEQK


Molecular target: T1, EsCas13d, nuclease-dead
Experiment: crRNA (strand 1, pre-loaded); Mg2+; 40 mM Tris-HCl pH 7.5, 150 mM NaCl, 6 mM MgCl2, 1 mM DTT, 0.1% Tween-20, 0.2 mg/ml BSA; 25 C; 10 min per concentration, then washed
Details: tags: His6-TwinStrep-SUMO cleaved; N-terminal SNAP kept (SNAP-Surface 488); label: 3' end held by stalled T7 RNA polymerase

Binder	Kd [nM]
target 1 insG 3' of 2 (mixed) RNA 1: CACCCGUGCAAAAAUGCAGGGGUCUAAAACUGAGCGGAUAACCUCUCUAUGG RNA 2: GGGAAUGGAUCCACAUCUACGAAUUCGUACCAUAGAGAGGUUAUCCGCUCGACCGAGAUCGGAAGAGCACACGU	8.6 ± 0.4
target 1 insA 3' of 21 (mixed) RNA 1: CACCCGUGCAAAAAUGCAGGGGUCUAAAACUGAGCGGAUAACCUCUCUAUGG RNA 2: GGGAAUGGAUCCACAUCUACGAAUUCGUACCAAUAGAGAGGUUAUCCGCUCACCGAGAUCGGAAGAGCACACGU	13.8 ± 1.2
target 1 G5U,G17A (mixed) RNA 1: CACCCGUGCAAAAAUGCAGGGGUCUAAAACUGAGCGGAUAACCUCUCUAUGG RNA 2: GGGAAUGGAUCCACAUCUACGAAUUCGUACCAUAAAGAGGUUAUCCUCUCACCGAGAUCGGAAGAGCACACGU	91 ± 15
target 1 insA 3' of 10,insA 3' of 3 (mixed) RNA 1: CACCCGUGCAAAAAUGCAGGGGUCUAAAACUGAGCGGAUAACCUCUCUAUGG RNA 2: GGGAAUGGAUCCACAUCUACGAAUUCGUACCAUAGAGAGGUUAAUCCGCUACACCGAGAUCGGAAGAGCACACGU	8.56 ± 0.34
target 2 MT 5'PFS CUU 3'PFS AAC (mixed) RNA 1: CACCCGUGCAAAAUUGCAGGGGUCUAAAACCUUCUCCAAAUUGUUUCAUCCU RNA 2: GGGAAUGGAUCCACAUCUACGAAUUCCUUAGGAUGAAACAAUUUGGAGAAGAACAGAUCGGAAGAGCACACGU	4.3 ± 0.5
target 2 MT 5'PFS CUG 3'PFS AUG (mixed) RNA 1: CACCCGUGCAAAAUUGCAGGGGUCUAAAACCUUCUCCAAAUUGUUUCAUCCU RNA 2: GGGAAUGGAUCCACAUCUACGAAUUCCUGAGGAUGAAACAAUUUGGAGAAGAUGAGAUCGGAAGAGCACACGU	3.17 ± 0.32
target 2 MT 5'PFS CUG 3'PFS AUA (mixed) RNA 1: CACCCGUGCAAAAUUGCAGGGGUCUAAAACCUUCUCCAAAUUGUUUCAUCCU RNA 2: GGGAAUGGAUCCACAUCUACGAAUUCCUGAGGAUGAAACAAUUUGGAGAAGAUAAGAUCGGAAGAGCACACGU	2.63 ± 0.24
target 2 MT 5'PFS CAC 3'PFS CUU (mixed) RNA 1: CACCCGUGCAAAAUUGCAGGGGUCUAAAACCUUCUCCAAAUUGUUUCAUCCU RNA 2: GGGAAUGGAUCCACAUCUACGAAUUCCACAGGAUGAAACAAUUUGGAGAAGCUUAGAUCGGAAGAGCACACGU	2.31 ± 0.3
target 2 MT 5'PFS CAG 3'PFS CCG (mixed) RNA 1: CACCCGUGCAAAAUUGCAGGGGUCUAAAACCUUCUCCAAAUUGUUUCAUCCU RNA 2: GGGAAUGGAUCCACAUCUACGAAUUCCAGAGGAUGAAACAAUUUGGAGAAGCCGAGAUCGGAAGAGCACACGU	11.9 ± 3
target 2 MT 5'PFS ACA 3'PFS AAG (mixed) RNA 1: CACCCGUGCAAAAUUGCAGGGGUCUAAAACCUUCUCCAAAUUGUUUCAUCCU RNA 2: GGGAAUGGAUCCACAUCUACGAAUUCACAAGGAUGAAACAAUUUGGAGAAGAAGAGAUCGGAAGAGCACACGU	10 ± 5
target 2 MT 5'PFS UUG 3'PFS CAU (mixed) RNA 1: CACCCGUGCAAAAUUGCAGGGGUCUAAAACCUUCUCCAAAUUGUUUCAUCCU RNA 2: GGGAAUGGAUCCACAUCUACGAAUUCUUGAGGAUGAAACAAUUUGGAGAAGCAUAGAUCGGAAGAGCACACGU	9.1 ± 1.2
target 2 MT 5'PFS GGA 3'PFS UCU (mixed) RNA 1: CACCCGUGCAAAAUUGCAGGGGUCUAAAACCUUCUCCAAAUUGUUUCAUCCU RNA 2: GGGAAUGGAUCCACAUCUACGAAUUCGGAAGGAUGAAACAAUUUGGAGAAGUCUAGAUCGGAAGAGCACACGU	22 ± 4
target 2 MT 5'PFS CUG 3'PFS AUU (mixed) RNA 1: CACCCGUGCAAAAUUGCAGGGGUCUAAAACCUUCUCCAAAUUGUUUCAUCCU RNA 2: GGGAAUGGAUCCACAUCUACGAAUUCCUGAGGAUGAAACAAUUUGGAGAAGAUUAGAUCGGAAGAGCACACGU	2.57 ± 0.22
target 2 MT 5'PFS ACA 3'PFS AAA (mixed) RNA 1: CACCCGUGCAAAAUUGCAGGGGUCUAAAACCUUCUCCAAAUUGUUUCAUCCU RNA 2: GGGAAUGGAUCCACAUCUACGAAUUCACAAGGAUGAAACAAUUUGGAGAAGAAAAGAUCGGAAGAGCACACGU	8.3 ± 1.4
target 2 MT 5'PFS GGA 3'PFS UCA (mixed) RNA 1: CACCCGUGCAAAAUUGCAGGGGUCUAAAACCUUCUCCAAAUUGUUUCAUCCU RNA 2: GGGAAUGGAUCCACAUCUACGAAUUCGGAAGGAUGAAACAAUUUGGAGAAGUCAAGAUCGGAAGAGCACACGU	10.4 ± 1.4
target 2 MT 5'PFS CUG 3'PFS CGC (mixed) RNA 1: CACCCGUGCAAAAUUGCAGGGGUCUAAAACCUUCUCCAAAUUGUUUCAUCCU RNA 2: GGGAAUGGAUCCACAUCUACGAAUUCCUGAGGAUGAAACAAUUUGGAGAAGCGCAGAUCGGAAGAGCACACGU	4 ± 0.4
target 2 MT 5'PFS UUG 3'PFS CAA (mixed) RNA 1: CACCCGUGCAAAAUUGCAGGGGUCUAAAACCUUCUCCAAAUUGUUUCAUCCU RNA 2: GGGAAUGGAUCCACAUCUACGAAUUCUUGAGGAUGAAACAAUUUGGAGAAGCAAAGAUCGGAAGAGCACACGU	9.9 ± 1.4
target 2 MT 5'PFS GGA 3'PFS UCC (mixed) RNA 1: CACCCGUGCAAAAUUGCAGGGGUCUAAAACCUUCUCCAAAUUGUUUCAUCCU RNA 2: GGGAAUGGAUCCACAUCUACGAAUUCGGAAGGAUGAAACAAUUUGGAGAAGUCCAGAUCGGAAGAGCACACGU	24.2 ± 2.8
target 2 MT 5'PFS AGU 3'PFS AGU (mixed) RNA 1: CACCCGUGCAAAAUUGCAGGGGUCUAAAACCUUCUCCAAAUUGUUUCAUCCU RNA 2: GGGAAUGGAUCCACAUCUACGAAUUCAGUAGGAUGAAACAAUUUGGAGAAGAGUAGAUCGGAAGAGCACACGU	6.8 ± 0.7
target 2 MT 5'PFS UUG 3'PFS CAG (mixed) RNA 1: CACCCGUGCAAAAUUGCAGGGGUCUAAAACCUUCUCCAAAUUGUUUCAUCCU RNA 2: GGGAAUGGAUCCACAUCUACGAAUUCUUGAGGAUGAAACAAUUUGGAGAAGCAGAGAUCGGAAGAGCACACGU	11.8 ± 0.9
target 2 MT 5'PFS CAC 3'PFS CUC (mixed) RNA 1: CACCCGUGCAAAAUUGCAGGGGUCUAAAACCUUCUCCAAAUUGUUUCAUCCU RNA 2: GGGAAUGGAUCCACAUCUACGAAUUCCACAGGAUGAAACAAUUUGGAGAAGCUCAGAUCGGAAGAGCACACGU	2.9 ± 1
target 2 MT 5'PFS CCC 3'PFS UUA (mixed) RNA 1: CACCCGUGCAAAAUUGCAGGGGUCUAAAACCUUCUCCAAAUUGUUUCAUCCU RNA 2: GGGAAUGGAUCCACAUCUACGAAUUCCCCAGGAUGAAACAAUUUGGAGAAGUUAAGAUCGGAAGAGCACACGU	1.25 ± 0.21
target 2 MT 5'PFS UUG 3'PFS CAC (mixed) RNA 1: CACCCGUGCAAAAUUGCAGGGGUCUAAAACCUUCUCCAAAUUGUUUCAUCCU RNA 2: GGGAAUGGAUCCACAUCUACGAAUUCUUGAGGAUGAAACAAUUUGGAGAAGCACAGAUCGGAAGAGCACACGU	16.4 ± 2.2
target 2 MT 5'PFS UUC 3'PFS AAC (mixed) RNA 1: CACCCGUGCAAAAUUGCAGGGGUCUAAAACCUUCUCCAAAUUGUUUCAUCCU RNA 2: GGGAAUGGAUCCACAUCUACGAAUUCUUCAGGAUGAAACAAUUUGGAGAAGAACAGAUCGGAAGAGCACACGU	15 ± 4
target 2 MT 5'PFS ACA 3'PFS AAU (mixed) RNA 1: CACCCGUGCAAAAUUGCAGGGGUCUAAAACCUUCUCCAAAUUGUUUCAUCCU RNA 2: GGGAAUGGAUCCACAUCUACGAAUUCACAAGGAUGAAACAAUUUGGAGAAGAAUAGAUCGGAAGAGCACACGU	5.7 ± 1.3
target 2 MT 5'PFS AGU 3'PFS AGG (mixed) RNA 1: CACCCGUGCAAAAUUGCAGGGGUCUAAAACCUUCUCCAAAUUGUUUCAUCCU RNA 2: GGGAAUGGAUCCACAUCUACGAAUUCAGUAGGAUGAAACAAUUUGGAGAAGAGGAGAUCGGAAGAGCACACGU	12.3 ± 1.9
target 2 MT 5'PFS CUU 3'PFS AAA (mixed) RNA 1: CACCCGUGCAAAAUUGCAGGGGUCUAAAACCUUCUCCAAAUUGUUUCAUCCU RNA 2: GGGAAUGGAUCCACAUCUACGAAUUCCUUAGGAUGAAACAAUUUGGAGAAGAAAAGAUCGGAAGAGCACACGU	2.9 ± 0.35
target 2 MT 5'PFS GGA 3'PFS UCG (mixed) RNA 1: CACCCGUGCAAAAUUGCAGGGGUCUAAAACCUUCUCCAAAUUGUUUCAUCCU RNA 2: GGGAAUGGAUCCACAUCUACGAAUUCGGAAGGAUGAAACAAUUUGGAGAAGUCGAGAUCGGAAGAGCACACGU	17.4 ± 2.7
